Measurements reported in patent US20180273635A1 (Zymeworks, published 2018).
Changes are numbered by the printed parent chain. Names and notes keep the numbering of the source. Blank lines part the entries; values can stand above or below the binder they belong to.

Assays:
Recombinant human HER2 [1] = molecular target: T1, Recombinant human HER2 (human, UniProt P04626 23-652); test: SPR, variant captured on anti-human Fc, HER2 flowed, 25 C, pre-SEC;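 note: HER2 extracellular domain binding on Biacore T200, CM5 chip with amine-coupled anti-human Fc, duplicate antigen dilutions, global 1:1 Langmuir fit, measured after protein A purification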
T1 construct: extracellular domain; analyte of the SPR assays; also called HER2 ECD; ECD2 of HER2
Procedure: (§1) The affinity towards HER2 ECD of the samples was measured by SPR on a Biacore T200 as follows. Between 2000 and 4000 RU of anti-human Fc injected at concentration between 5 and 10 μg/ml was immobilized on a CM5 chip using standard amine coupling. Antigen-binding constructs were captured on the anti-human Fc (injected at concentration at 0.51 microg/mL in PBST, 1 min at 10 microl/min) at response levels ranging from 120-270 RU. […] HER2 dilutions were analyzed in duplicates. Sensograms were fit globally to a 1: 1 Langmuir binding model, using the software provided with the Biacore T200. All experiments were conducted at 25° C.
The affinity of antigen-binding constructs in OA format was determined by SPR following protein A purification. […] Antigen-binding constructs in FSA format were purified by protein A affinity and SEC prior to assessment of affinity by SPR.

Recombinant human HER2 [2] = molecular target: T1, Recombinant human HER2; test: SPR, pre-SEC; ratio to WT v10013;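 note: SPR on Biacore T200 at 25 °C, constructs captured via anti-human Fc on CM5 chip, HER2 ECD as analyte, 1:1 Langmuir global fit, after protein A purification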
Recombinant human HER2 [3] = molecular target: T2, Recombinant human HER2 (human, UniProt P04626 23-652); test: calculated from the SPR Ka ratio to WT v10013;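 note: SPR at 25 °C with constructs captured on an anti-human Fc chip and HER2 extracellular domain as analyte, kinetics fitted to a 1:1 Langmuir model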
T2 construct: extracellular domain; Analyte of the SPR assays; also called HER2 ECD; ECD2 of HER2

Recombinant human HER2 [4] = molecular target: T2, Recombinant human HER2; test: SPR, Biacore T200, 25 C; variant captured on anti-human Fc, HER2 flowed;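 note: HER2 extracellular domain analyte run as duplicate dilutions over amine-coupled anti-Fc on a CM5 chip, rates from global sensorgram fitting with a 1:1 Langmuir model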
Procedure: as §1

Recombinant human HER2 [5] = molecular target: T2, Recombinant human HER2; test: SPR, 25 C; Ka ratio to WT v10013;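 note: constructs captured via anti-human Fc on CM5 chip, HER2 ECD as analyte in duplicate dilutions, sensorgrams globally fit to 1:1 Langmuir model on Biacore T200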
Procedure: as §1

Kd (Recombinant human HER2 [1]): 15 nM | Ka, mut/Ka, WT (Recombinant human HER2 [2]): 1.3
B2: variant 12546 (antibody, human IgG1, kappa)
heavy: EVQLVESGGGLVQPGGSLRLSCAASGFTFTDYTMDWVRQAPGKGLEWVADVNPNSGGSIYNRRFKGRFTLSVDRSKNTLYLQMNSLRAEDTAVYYCARNLGPSFYFDYWGQGTLVTVSSASTKGPSVFPLAPSSKSTSGGTAALGCLVKDYFPEPVTVSWNSGALTSGVHTFPAVLQSSGLYSLSSVVTVPSSSLGTQTYICNVNHKPSNTKVDKKVEPKSCDKTHTCPPCPAPELLGGPSVFLFPPKPKDTLMISRTPEVTCVVVDVSHEDPEVKFNWYVDGVEVHNAKTKPREEQYNSTYRVVSVLTVLHQDWLNGKEYKCKVSNKALPAPIEKTISKAKGQPREPQVYVYPPSRDELTKNQVSLTCLVKGFYPSDIAVEWESNGQPENNYKTTPPVLDSDGSFALVSKLTVDKSRWQQGNVFSCSVMHEALHNHYTQKSLSLSPG
light: NIQMTQSPSSLSASVGDRVTITCKASQDVSIGVAWYQQKPGKAPKLLIYSASYRYTGVPSRFSGSGSGTDFTLTISSLQPEDFATYYCQQYYIYPYTFGQGTKVEIKRTVAAPSVFIFPPSDEQLKSGTASVVCLLNNFYPREAKVQWKVDNALQSGNSQESVTEQDSKDSTYSLSSTLTLSKADYEKHKVYACEVTHQGLSSPVTKSFNRGEC
chain: not shown
notes: OA pertuzumab variant, HC Q61R, LC D1N (Kabat); also called v12546

Kd (Recombinant human HER2 [1]): 10 nM | Ka, mut/Ka, WT (Recombinant human HER2 [2]): 1.6
B5: variant 14066 (antibody, human IgG1, kappa)
heavy: B2 heavy with R62Q, K76V
light: not shown
chain: not shown
notes: OA pertuzumab variant, HC K75V (Kabat); also called v14066

Kd (Recombinant human HER2 [1]): 81 nM | Ka, mut/Ka, WT (Recombinant human HER2 [2]): 0.2
B7: variant 12545 (antibody, human IgG1, kappa)
heavy: B2 heavy
light: not shown
chain: not shown
notes: OA pertuzumab variant, HC Q61R, LC Y94K (Kabat); also called v12545

Kd (Recombinant human HER2 [1]): 9.7 nM | Ka, mut/Ka, WT (Recombinant human HER2 [2]): 1.7
B14: variant 14064 (antibody, human IgG1, kappa)
heavy: B2 heavy with R62Q, K76A
light: not shown
chain: not shown
notes: OA pertuzumab variant, HC K75A (Kabat); also called v14064

Kd (Recombinant human HER2 [1]): 63 nM | Ka, mut/Ka, WT (Recombinant human HER2 [2]): 0.3
B17: variant 12541 (antibody, human IgG1, kappa)
heavy: B2 heavy with R62Q
light: not shown
chain: not shown
notes: OA pertuzumab variant, LC Y96L (Kabat); also called v12541

Kd (Recombinant human HER2 [1]): 0.94 nM | Ka, mut/Ka, WT (Recombinant human HER2 [2]): 18
B20: variant 14067 (antibody, human IgG1, kappa)
heavy: B2 heavy with R62Q, K76Y
light: not shown
chain: not shown
notes: OA pertuzumab variant, HC K75Y (Kabat); also called v14067

Kd (Recombinant human HER2 [1]): 20 nM | Ka, mut/Ka, WT (Recombinant human HER2 [2]): 1
B22: variant 12543 (antibody, human IgG1, kappa)
heavy: B2 heavy with R62Q, F64L
light: not shown
chain: not shown
notes: OA pertuzumab variant, HC F63L (Kabat); also called v12543

Kd (Recombinant human HER2 [1]): 11 nM | Ka, mut/Ka, WT (Recombinant human HER2 [2]): 1.5
B23: variant 14065 (antibody, human IgG1, kappa)
heavy: B2 heavy with R62Q, K76I
light: not shown
chain: not shown
notes: OA pertuzumab variant, HC K75I (Kabat); also called v14065

Kd (Recombinant human HER2 [1]): 40 nM | Ka, mut/Ka, WT (Recombinant human HER2 [2]): 0.5
B24: variant 12542 (antibody, human IgG1, kappa)
heavy: B2 heavy with R62Q, F64G
light: not shown
chain: not shown
notes: OA pertuzumab variant, HC F63G (Kabat); also called v12542

Second part, the binder before the results:

B1: variant 12539 (antibody, human IgG1, kappa)
heavy: B2 heavy with R62Q
light: B2 light with N1D, Y91T
chain: not shown
notes: OA pertuzumab variant, LC Y91T (Kabat); also called v12539
Kd (Recombinant human HER2 [1]): 75 nM | Ka, mut/Ka, WT (Recombinant human HER2 [2]): 0.3

B3: Variant 14037 (antibody, human IgG1, kappa)
heavy: B2 heavy with R62Q, K76E
light: not shown
chain: not shown
notes: OA (one-armed) format; clones 7843, 7919, 4372; also called v14037
ΔΔG (Recombinant human HER2 [3]): -1.5 kcal/mol | Kd (Recombinant human HER2 [4]): 1.4 nM | koff (Recombinant human HER2 [4]): 8.3e-05 s⁻¹ | kon (Recombinant human HER2 [4]): 59000 M⁻¹ s⁻¹ | Ka, mut/Ka, WT (Recombinant human HER2 [5]): 12 fold

B4: Variant 14040 (antibody, human IgG1, kappa)
heavy: B2 heavy with R62Q, K76E, S103W
light: not shown
chain: not shown
notes: OA (one-armed) format; clones 8783, 1811, 4372; also called v14040
ΔΔG (Recombinant human HER2 [3]): -1.6 kcal/mol | Kd (Recombinant human HER2 [4]): 1.2 nM | koff (Recombinant human HER2 [4]): 7.9e-05 s⁻¹ | kon (Recombinant human HER2 [4]): 64000 M⁻¹ s⁻¹ | Ka, mut/Ka, WT (Recombinant human HER2 [5]): 15 fold

B6: Variant 14028 (antibody, human IgG1, kappa)
heavy: B2 heavy with T30Y, R62Q, K76W
light: not shown
chain: not shown
notes: OA (one-armed) format; clones 8776, 1811, 4372; also called v14028
ΔΔG (Recombinant human HER2 [3]): -2.5 kcal/mol | Kd (Recombinant human HER2 [4]): ~0.25 nM | koff (Recombinant human HER2 [4]): ~1.7e-05 s⁻¹ | kon (Recombinant human HER2 [4]): 68000 M⁻¹ s⁻¹ | Ka, mut/Ka, WT (Recombinant human HER2 [5]): ~67 fold

B8: Variant 14033 (antibody, human IgG1, kappa)
heavy: B2 heavy with R62Q, S75W, K76E
light: not shown
chain: not shown
notes: OA (one-armed) format; clones 8779, 1811, 4372; also called v14033
ΔΔG (Recombinant human HER2 [3]): -1.4 kcal/mol | Kd (Recombinant human HER2 [4]): 1.7 nM | koff (Recombinant human HER2 [4]): 9.9e-05 s⁻¹ | kon (Recombinant human HER2 [4]): 59000 M⁻¹ s⁻¹ | Ka, mut/Ka, WT (Recombinant human HER2 [5]): 10 fold

B9: Variant 14042 (antibody, human IgG1, kappa)
heavy: B2 heavy with T30Q, G57Y, R62Q
light: not shown
chain: not shown
notes: OA (one-armed) format; clones 8788, 1811, 4372; also called v14042
ΔΔG (Recombinant human HER2 [3]): -1.6 kcal/mol | Kd (Recombinant human HER2 [4]): 1.2 nM | koff (Recombinant human HER2 [4]): 5.9e-05 s⁻¹ | kon (Recombinant human HER2 [4]): 47000 M⁻¹ s⁻¹ | Ka, mut/Ka, WT (Recombinant human HER2 [5]): 15 fold

B10: Variant 14031 (antibody, human IgG1, kappa)
heavy: B2 heavy with T30Q, R62Q, S75W
light: not shown
chain: not shown
notes: OA (one-armed) format; clones 8778, 1811, 4372; also called v14031
ΔΔG (Recombinant human HER2 [3]): -1.2 kcal/mol | Kd (Recombinant human HER2 [4]): 2 nM | koff (Recombinant human HER2 [4]): 9.9e-05 s⁻¹ | kon (Recombinant human HER2 [4]): 49000 M⁻¹ s⁻¹ | Ka, mut/Ka, WT (Recombinant human HER2 [5]): 8 fold

B11: Variant 14030 (antibody, human IgG1, kappa)
heavy: B2 heavy with R62Q, S75W
light: not shown
chain: not shown
notes: OA (one-armed) format; clones 7840, 7919, 4372; also called v14030
ΔΔG (Recombinant human HER2 [3]): -1.5 kcal/mol | Kd (Recombinant human HER2 [4]): 1.3 nM | koff (Recombinant human HER2 [4]): 8e-05 s⁻¹ | kon (Recombinant human HER2 [4]): 63000 M⁻¹ s⁻¹ | Ka, mut/Ka, WT (Recombinant human HER2 [5]): 13 fold

B12: Variant 14029 (antibody, human IgG1, kappa)
heavy: B2 heavy with G57Y, R62Q, K76W
light: not shown
chain: not shown
notes: OA (one-armed) format; clones 8777, 1811, 4372; also called v14029
ΔΔG (Recombinant human HER2 [3]): -2.6 kcal/mol | Kd (Recombinant human HER2 [4]): ~0.21 nM | koff (Recombinant human HER2 [4]): ~2e-05 s⁻¹ | kon (Recombinant human HER2 [4]): 95000 M⁻¹ s⁻¹ | Ka, mut/Ka, WT (Recombinant human HER2 [5]): ~81 fold

B13: Variant 14026 (antibody, human IgG1, kappa)
heavy: B2 heavy with R62Q, K76W, S103W
light: not shown
chain: not shown
notes: OA (one-armed) format; clones 8774, 1811, 4372; also called v14026
ΔΔG (Recombinant human HER2 [3]): -2.4 kcal/mol | Kd (Recombinant human HER2 [4]): ~0.29 nM | koff (Recombinant human HER2 [4]): ~2.7e-05 s⁻¹ | kon (Recombinant human HER2 [4]): 91000 M⁻¹ s⁻¹ | Ka, mut/Ka, WT (Recombinant human HER2 [5]): ~57 fold

B15: Variant 14041 (antibody, human IgG1, kappa)
heavy: B2 heavy with T30Y, R62Q, S103W
light: not shown
chain: not shown
notes: OA (one-armed) format; clones 8785, 1811, 4372; also called v14041
ΔΔG (Recombinant human HER2 [3]): -1.7 kcal/mol | Kd (Recombinant human HER2 [4]): 1.1 nM | koff (Recombinant human HER2 [4]): 5.8e-05 s⁻¹ | kon (Recombinant human HER2 [4]): 51000 M⁻¹ s⁻¹ | Ka, mut/Ka, WT (Recombinant human HER2 [5]): 17 fold

B16: Variant 14027 (antibody, human IgG1, kappa)
heavy: B2 heavy with R62Q, K76W
light: not shown
chain: not shown
notes: OA (one-armed) format; clones 7844, 7917, 4372; also called v14027
ΔΔG (Recombinant human HER2 [3]): -3 kcal/mol | Kd (Recombinant human HER2 [4]): ~0.1 nM | koff (Recombinant human HER2 [4]): ~9e-06 s⁻¹ | kon (Recombinant human HER2 [4]): 88000 M⁻¹ s⁻¹ | Ka, mut/Ka, WT (Recombinant human HER2 [5]): ~164 fold

B18: Variant 14038 (antibody, human IgG1, kappa)
heavy: B2 heavy with T30Q, R62Q, K76E
light: not shown
chain: not shown
notes: OA (one-armed) format; clones 8782, 1811, 4372; also called v14038
ΔΔG (Recombinant human HER2 [3]): -1.5 kcal/mol | Kd (Recombinant human HER2 [4]): 1.4 nM | koff (Recombinant human HER2 [4]): 6.2e-05 s⁻¹ | kon (Recombinant human HER2 [4]): 43000 M⁻¹ s⁻¹ | Ka, mut/Ka, WT (Recombinant human HER2 [5]): 12 fold

B19: Variant 14039 (antibody, human IgG1, kappa)
heavy: B2 heavy with T30Y, R62Q
light: not shown
chain: not shown
notes: OA (one-armed) format; clones 7813, 7919, 4372; also called v14039
ΔΔG (Recombinant human HER2 [3]): -1.7 kcal/mol | Kd (Recombinant human HER2 [4]): 1.1 nM | koff (Recombinant human HER2 [4]): 5.5e-05 s⁻¹ | kon (Recombinant human HER2 [4]): 50000 M⁻¹ s⁻¹ | Ka, mut/Ka, WT (Recombinant human HER2 [5]): 18 fold

B21: Variant 14034 (antibody, human IgG1, kappa)
heavy: B2 heavy with R62Q
light: not shown
chain: not shown
notes: OA (one-armed) format; clones 3057, 8781, 4372; also called v14034
ΔΔG (Recombinant human HER2 [3]): -1.4 kcal/mol | Kd (Recombinant human HER2 [4]): 1.5 nM | koff (Recombinant human HER2 [4]): 8.5e-05 s⁻¹ | kon (Recombinant human HER2 [4]): 59000 M⁻¹ s⁻¹ | Ka, mut/Ka, WT (Recombinant human HER2 [5]): 12 fold

B25: Variant 14044 (antibody, human IgG1, kappa)
heavy: B2 heavy with R62Q, K76W, S103W
light: not shown
chain: not shown
notes: OA (one-armed) format; clones 8774, 7919, 4372; also called v14044
ΔΔG (Recombinant human HER2 [3]): -2.4 kcal/mol | Kd (Recombinant human HER2 [4]): 0.33 nM | koff (Recombinant human HER2 [4]): 3.2e-05 s⁻¹ | kon (Recombinant human HER2 [4]): 96000 M⁻¹ s⁻¹ | Ka, mut/Ka, WT (Recombinant human HER2 [5]): 57 fold

B26: Variant 14035 (antibody, human IgG1, kappa)
heavy: B2 heavy with T30Q, R62Q
light: not shown
chain: not shown
notes: OA (one-armed) format; clones 7815, 7917, 4372; also called v14035
ΔΔG (Recombinant human HER2 [3]): -1.7 kcal/mol | Kd (Recombinant human HER2 [4]): 0.91 nM | koff (Recombinant human HER2 [4]): 4e-05 s⁻¹ | kon (Recombinant human HER2 [4]): 44000 M⁻¹ s⁻¹ | Ka, mut/Ka, WT (Recombinant human HER2 [5]): 18 fold
